This data set deals with T1, BMC02 (uncultured bacterium (metagenome)).
T1 chain: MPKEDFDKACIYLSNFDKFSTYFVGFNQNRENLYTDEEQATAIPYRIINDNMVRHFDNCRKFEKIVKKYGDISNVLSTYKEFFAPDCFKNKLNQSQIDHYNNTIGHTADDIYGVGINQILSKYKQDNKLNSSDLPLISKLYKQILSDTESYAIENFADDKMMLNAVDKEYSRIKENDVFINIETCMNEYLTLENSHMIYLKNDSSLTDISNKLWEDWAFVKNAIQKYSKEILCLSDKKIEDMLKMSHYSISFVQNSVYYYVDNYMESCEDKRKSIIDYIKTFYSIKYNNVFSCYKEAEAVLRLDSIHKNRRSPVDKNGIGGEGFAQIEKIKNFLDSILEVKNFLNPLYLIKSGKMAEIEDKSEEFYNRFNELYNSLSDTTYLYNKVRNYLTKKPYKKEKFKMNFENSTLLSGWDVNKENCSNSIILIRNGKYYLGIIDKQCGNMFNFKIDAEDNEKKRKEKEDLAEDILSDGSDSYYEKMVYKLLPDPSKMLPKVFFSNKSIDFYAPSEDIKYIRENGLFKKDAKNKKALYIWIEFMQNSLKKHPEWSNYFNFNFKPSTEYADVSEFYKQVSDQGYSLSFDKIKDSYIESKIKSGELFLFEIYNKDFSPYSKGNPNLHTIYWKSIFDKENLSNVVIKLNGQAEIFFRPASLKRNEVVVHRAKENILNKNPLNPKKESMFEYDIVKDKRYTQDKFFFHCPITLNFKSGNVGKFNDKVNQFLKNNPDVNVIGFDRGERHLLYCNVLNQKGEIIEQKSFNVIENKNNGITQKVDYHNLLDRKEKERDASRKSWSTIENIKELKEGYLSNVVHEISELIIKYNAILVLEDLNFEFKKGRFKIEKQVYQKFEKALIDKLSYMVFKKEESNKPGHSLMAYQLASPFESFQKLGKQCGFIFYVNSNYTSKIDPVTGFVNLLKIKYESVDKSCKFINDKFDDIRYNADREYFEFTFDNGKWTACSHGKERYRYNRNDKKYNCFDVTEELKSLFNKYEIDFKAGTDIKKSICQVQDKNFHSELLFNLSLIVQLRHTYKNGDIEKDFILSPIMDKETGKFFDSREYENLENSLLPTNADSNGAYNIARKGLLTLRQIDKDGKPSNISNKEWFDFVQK
Description: cell_activity; PAM not stated; E. coli depletion, 30 C. A digest of the protocol:
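E. coli carrying arabinose-induced (0.2%) BMC nuclease, grown at 30° C., made electrocompetent and electroporated with 50-100 ng plasmid carrying gRNA against malQ. Transformants plated on selective M9-glucose agar with kanamycin/ampicillin (± nourseothricin), and growth scored after 48 h at 30° C.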

Activity data for one molecule are collected here from patent US20250277199, “NOVEL CRISPR-CAS NUCLEASES FROM METAGENOMES” (Brain Biotech AG, published 2025).

B1: malQ gRNA (BMC stem-loop + 24 nt spacer) ; malQ protospacer (ssRNA ; dsDNA)
RNA: GAUUUCUACUAUUGUAGAUGUGGCGGUACGUUGAUGCAUCGCG
DNA 1: GTGGCGGTACGTTGATGCATCGCG
DNA 2: CGCGATGCATCAACGTACCGCCAC
With B1, the activity is over 99.9 % colony reduction.
